These results are taken from patent publication EP4541444A1.

Numbering of substitutions follows the chain as printed.

In assay [1] the target is epidermal growth factor receptor (Example 4A) (UniProt P00533). The experiment in a line: SPR (Biacore), fusion on CM5 chip, EGFR 200 nM.
For assay [2], the target named is EGFR (SinoBiological, 10001-H08H) (UniProt P00533). The experiment in a line: SPR (Biacore), fusion on CM5 chip, EGFR 200 nM.
For assay [3], the target named is AAV9 viral particles (adeno-associated virus serotype 9). The experiment in a line: SPR (Biacore), biotinylated ligand on SA chip, AAV9 2E12 vp/ml.
The target of a further assay is trastuzumab-GFP. The experiment in a line: SPR (Biacore), fusion on CM5 chip, 2 µM Fc block, then trastuzumab-eGFP 1 µM.
Assay [4] addresses AAV9 viral particles (adeno-associated virus serotype 9). The experiment in a line: SPR (Biacore), ligand amine coupled to CM5 chip, AAV9 2E12 vp/ml.

B1: 4A-5 (VHH)
VHH: QVQLQQSGGGSVQAGGSLRLSCTISGRTFSSYAMGWFRQRPGKEREFVAAINWSSGSTYYADSVKGRFTISRDNAKNTVYLQMNSLKPEDTAVYYCAAGYQINSGNYNFKDYEYDYWGQGTQVTVSS
For the molecule B1, the Binding capacity EGFR (200 nM) in assay [1] is 2350 RU.

B2: 4B-4 (VHH)
VHH: B1 VHH
In assay [2], B2 displayed a Binding capacity EGFR (200 nM) of 1900 RU.

B3: 2B-1 (VHH)
chain: QVQLQQSGGGSVQAGGSLRLSCTISGRTLSDYTMGWFRQRPGKEREFVAAISWSGAYTKYADSVKGRFTISRDNAKNTVYLQMNSLKPEDTAVYYCAAGPTGLLSKKATPADYDYWGQGTQVTVSSQASAEAAAKEAAAKAGQVQLQQSGGGSVQAGGSLRLSCTISGRTLSDYTMGWFRQRPGKEREFVAAISWSGAYTKYADSVKGRFTISRDNAKNTVYLQMNSLKPEDTAVYYCAAGPTGLLSKKATPADYDYWGQGTQVTVSSQASAEAAAKEAAAKAGQVQLQQSGGGSVQAGGSLRLSCTISGRTLSDYTMGWFRQRPGKEREFVAAISWSGAYTKYADSVKGRFTISRDNAKNTVYLQMNSLKPEDTAVYYCAAGPTGLLSKKATPADYDYWGQGTQVTVSSQASHHHHHHC
With B3, the AAV9 capacity (2E12 vp/ml) in assay [3] amounted to 13400 RU.

B4: 4B-5 (VHH)
VHH: QVQLQESGGGLVQPGGSLRLSCAASGRTSINPYMAWFRQAPGKQREFVAAISSGGVYTYYTDSVKGRFTISRDNAKTTVYLQMNSLKPEDTAVYYCAADFRRGGNWNVDPFRYDYQYWGQGTQVTVSS
For B4, in the assay with trastuzumab-GFP, the Binding capacity trastuzumab-eGFP (1 µM) was 4300 RU.

B5: 4B-6 (VHH)
VHH: B4 VHH with E6Q, L11S, P14A, A23T, A24I, A40R, Q44E, T61A, T77N, Q116D
On to B5, for which the Binding capacity trastuzumab-eGFP (1 µM) with trastuzumab-GFP was 3910 RU.

B6: 2A-1 (VHH)
VHH: QVQLQQSGGGSVQAGGSLRLSCTISGRTLSDYTMGWFRQRPGKEREFVAAISWSGAYTKYADSVKGRFTISRDNAKNTVYLQMNSLKPEDTAVYYCAAGPTGLLSKKATPADYDYWGQGTQVTVSS
The molecule B6 displayed an AAV9 capacity (2E12 vp/ml) in assay [4] of 11300 RU.
